Earlier results in article PMC9987997.

What was measured:
[1] = biological target: Scribble PDZ1 (Homo sapiens) (UniProt Q14160); assay: ITC
[2] = biological target: Scribble PDZ4 (Homo sapiens) (UniProt Q14160); assay: ITC

**Q.** Which results are given for “NS1 (ESEV PBM) PBM (from UniProt Q8QPI8)”?
**A.** Kd [1]: 21.4 µM; Kd [2]: 12.2 µM
